Experimental data from publication PMC3154423.

Legend:
Assay in all cases: ITC
[1] = biological target: Jun bZIP K258A;Fos bZIP R144A (human;human, UniProt P05412;P01100 252-315;137-200, K258A|R144A)
[2] = biological target: Jun bZIP R272A;Fos bZIP R157A (human;human, UniProt P05412;P01100 252-315;137-200, R272A|R157A)
[3] = biological target: Jun bZIP R270A;Fos bZIP R146A (human;human, UniProt P05412;P01100 252-315;137-200, R270A|R146A)
[4] = biological target: Jun bZIP K273A;Fos bZIP K153A (human;human, UniProt P05412;P01100 252-315;137-200, K273A|K153A)
Jun bZIP K273A;Fos bZIP K153A, sequence (P05412 252-315 K273A, chain 1 of 2): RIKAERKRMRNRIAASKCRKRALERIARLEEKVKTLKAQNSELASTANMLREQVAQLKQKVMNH
Jun bZIP K273A;Fos bZIP K153A, sequence (P01100 137-200 K153A, chain 2 of 2): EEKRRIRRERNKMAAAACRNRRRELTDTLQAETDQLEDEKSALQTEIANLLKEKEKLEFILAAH

[5] = biological target: Jun-Jun bZIP K268A (human, UniProt P05412 252-315, K268A)
Jun-Jun bZIP K268A, sequence (P05412 252-315 K268A): as the sequence (P05412 252-315 K273A, chain 1 of 2) above, with K17A, A22K counted along it

[6] = biological target: Jun bZIP R272A;Fos bZIP K153A (human;human, UniProt P05412;P01100 252-315;137-200, R272A|K153A)
Jun bZIP R272A;Fos bZIP K153A, sequence (P05412 252-315 R272A, chain 1 of 2): as the sequence (P05412 252-315 K273A, chain 1 of 2) above, with R21A, A22K counted along it
Jun bZIP R272A;Fos bZIP K153A, sequence (P01100 137-200 K153A, chain 2 of 2): as the sequence (P01100 137-200 K153A, chain 2 of 2) above

[7] = biological target: Jun bZIP K273A;Fos bZIP R157A (human;human, UniProt P05412;P01100 252-315;137-200, K273A|R157A)
Jun bZIP K273A;Fos bZIP R157A, sequence (P05412 252-315 K273A, chain 1 of 2): as the sequence (P05412 252-315 K273A, chain 1 of 2) above
Jun bZIP K273A;Fos bZIP R157A, sequence (P01100 137-200 R157A, chain 2 of 2): as the sequence (P01100 137-200 K153A, chain 2 of 2) above, with A17K, R21A counted along it

[8] = biological target: Jun bZIP R259A;Fos bZIP R143A (human;human, UniProt P05412;P01100 252-315;137-200, R259A|R143A)
Jun bZIP R259A;Fos bZIP R143A, sequence (P05412 252-315 R259A, chain 1 of 2): as the sequence (P05412 252-315 K273A, chain 1 of 2) above, with R8A, A22K counted along it
Jun bZIP R259A;Fos bZIP R143A, sequence (P01100 137-200 R143A, chain 2 of 2): as the sequence (P01100 137-200 K153A, chain 2 of 2) above, with R7A, A17K counted along it

[9] = biological target: Jun bZIP K268A;Fos bZIP K148A (human;human, UniProt P05412;P01100 252-315;137-200, K268A|K148A)
Jun bZIP K268A;Fos bZIP K148A, sequence (P05412 252-315 K268A, chain 1 of 2): as the sequence (P05412 252-315 K273A, chain 1 of 2) above, with K17A, A22K counted along it
Jun bZIP K268A;Fos bZIP K148A, sequence (P01100 137-200 K148A, chain 2 of 2): as the sequence (P01100 137-200 K153A, chain 2 of 2) above, with K12A, A17K counted along it

[10] = biological target: Jun bZIP R259A;Fos bZIP R157A (human;human, UniProt P05412;P01100 252-315;137-200, R259A|R157A)
Jun bZIP R259A;Fos bZIP R157A, sequence (P05412 252-315 R259A, chain 1 of 2): as the sequence (P05412 252-315 K273A, chain 1 of 2) above, with R8A, A22K counted along it
Jun bZIP R259A;Fos bZIP R157A, sequence (P01100 137-200 R157A, chain 2 of 2): as the sequence (P01100 137-200 K153A, chain 2 of 2) above, with A17K, R21A counted along it

[11] = biological target: Jun bZIP R270A;Fos bZIP K153A (human;human, UniProt P05412;P01100 252-315;137-200, R270A|K153A)
Jun bZIP R270A;Fos bZIP K153A, sequence (P05412 252-315 R270A, chain 1 of 2): as the sequence (P05412 252-315 K273A, chain 1 of 2) above, with R19A, A22K counted along it
Jun bZIP R270A;Fos bZIP K153A, sequence (P01100 137-200 K153A, chain 2 of 2): as the sequence (P01100 137-200 K153A, chain 2 of 2) above

[12] = biological target: Jun bZIP R270A;Fos bZIP R143A (human;human, UniProt P05412;P01100 252-315;137-200, R270A|R143A)
Jun bZIP R270A;Fos bZIP R143A, sequence (P05412 252-315 R270A, chain 1 of 2): as the sequence (P05412 252-315 K273A, chain 1 of 2) above, with R19A, A22K counted along it
Jun bZIP R270A;Fos bZIP R143A, sequence (P01100 137-200 R143A, chain 2 of 2): as the sequence (P01100 137-200 K153A, chain 2 of 2) above, with R7A, A17K counted along it

[13] = biological target: Jun bZIP R263A;Fos bZIP R157A (human;human, UniProt P05412;P01100 252-315;137-200, R263A|R157A)
Jun bZIP R263A;Fos bZIP R157A, sequence (P05412 252-315 R263A, chain 1 of 2): as the sequence (P05412 252-315 K273A, chain 1 of 2) above, with R12A, A22K counted along it
Jun bZIP R263A;Fos bZIP R157A, sequence (P01100 137-200 R157A, chain 2 of 2): as the sequence (P01100 137-200 K153A, chain 2 of 2) above, with A17K, R21A counted along it

[14] = biological target: Jun bZIP R272A;Fos bZIP R158A (human;human, UniProt P05412;P01100 252-315;137-200, R272A|R158A)
Jun bZIP R272A;Fos bZIP R158A, sequence (P05412 252-315 R272A, chain 1 of 2): as the sequence (P05412 252-315 K273A, chain 1 of 2) above, with R21A, A22K counted along it
Jun bZIP R272A;Fos bZIP R158A, sequence (P01100 137-200 R158A, chain 2 of 2): as the sequence (P01100 137-200 K153A, chain 2 of 2) above, with A17K, R22A counted along it

[15] = biological target: Jun bZIP K258A;Fos bZIP R155A (human;human, UniProt P05412;P01100 252-315;137-200, K258A|R155A)
Jun bZIP K258A;Fos bZIP R155A, sequence (P05412 252-315 K258A, chain 1 of 2): as the sequence (P05412 252-315 K273A, chain 1 of 2) above, with K7A, A22K counted along it
Jun bZIP K258A;Fos bZIP R155A, sequence (P01100 137-200 R155A, chain 2 of 2): as the sequence (P01100 137-200 K153A, chain 2 of 2) above, with A17K, R19A counted along it

[16] = biological target: Jun-Jun bZIP R263A (human, UniProt P05412 252-315, R263A)
Jun-Jun bZIP R263A, sequence (P05412 252-315 R263A): as the sequence (P05412 252-315 K273A, chain 1 of 2) above, with R12A, A22K counted along it

[17] = biological target: Jun bZIP R270A;Fos bZIP K148A (human;human, UniProt P05412;P01100 252-315;137-200, R270A|K148A)
Jun bZIP R270A;Fos bZIP K148A, sequence (P05412 252-315 R270A, chain 1 of 2): as the sequence (P05412 252-315 K273A, chain 1 of 2) above, with R19A, A22K counted along it
Jun bZIP R270A;Fos bZIP K148A, sequence (P01100 137-200 K148A, chain 2 of 2): as the sequence (P01100 137-200 K153A, chain 2 of 2) above, with K12A, A17K counted along it

Jun bZIP R272A;Fos bZIP R157A, sequence (P05412 252-315 R272A, chain 1 of 2): as the sequence (P05412 252-315 K273A, chain 1 of 2) above, with R21A, A22K counted along it
Jun bZIP R272A;Fos bZIP R157A, sequence (P01100 137-200 R157A, chain 2 of 2): as the sequence (P01100 137-200 K153A, chain 2 of 2) above, with A17K, R21A counted along it
Jun bZIP K258A;Fos bZIP R144A, sequence (P05412 252-315 K258A, chain 1 of 2): as the sequence (P05412 252-315 K273A, chain 1 of 2) above, with K7A, A22K counted along it
Jun bZIP K258A;Fos bZIP R144A, sequence (P01100 137-200 R144A, chain 2 of 2): as the sequence (P01100 137-200 K153A, chain 2 of 2) above, with R8A, A17K counted along it
Jun bZIP R270A;Fos bZIP R146A, sequence (P05412 252-315 R270A, chain 1 of 2): as the sequence (P05412 252-315 K273A, chain 1 of 2) above, with R19A, A22K counted along it
Jun bZIP R270A;Fos bZIP R146A, sequence (P01100 137-200 R146A, chain 2 of 2): as the sequence (P01100 137-200 K153A, chain 2 of 2) above, with R10A, A17K counted along it

B1: TRE duplex 15-mer (dsDNA)
DNA 1: CGCGTGACTCACCCC
DNA 2: GGGGTGAGTCACGCG
For B1, the Kd [1] was 2780 ± 50 nM, the Kd [2] was 430 ± 20 nM and the Kd [3] was 1450 ± 130 nM. The Kd [4] was 840 ± 50 nM, the Kd [5] was 400 ± 20 nM and the Kd [6] was 960 ± 110 nM. For the same binder, the Kd [7] was 1300 ± 80 nM, the Kd [8] was 3490 ± 140 nM and the Kd [9] was 460 ± 20 nM. For the same binder, the Kd [10] was 3050 ± 120 nM, the Kd [11] was 1610 ± 150 nM and the Kd [12] was 1600 ± 50 nM. The Kd [13] was 1740 ± 30 nM, the Kd [14] was 620 ± 40 nM and the Kd [15] was 5380 ± 120 nM. It also gave a Kd [16] of 2140 ± 100 nM and a Kd [17] of 1900 ± 120 nM.
